Measurements reported in patent US20230078330A1, “HUMAN ANTI-DENGUE ANTIBODIES AND METHODS OF USE THEREFOR” (published 2023).

B1: DENV-419 (antibody, V domains shown)
VH: EMQLQESGPRLVKPSQTLSLTCTVSGGSTSSGGYYWSWFRQYPEKGLEWIGYIFSSVTTYYNPPLKSRVTISVDTSKNQFSLKLSSVTAADTAVYYCARSLHYYQSSGFLYWGRGIPVTVSA
VL: EIVLTQSPATLSLSPGDRATLSCRASQTVGDSLAWYQQKPGQAPRLLIYDVSNRATGIPARFSGSGSGTDFTLTISSLEPEDFAVYYCQQRASFVTFGRGTKVDIK
B2: DENV-144 (antibody, V domains shown)
VH: QVQLQESGPGLVKPSETLSLTCTVSGASISSYSWSWIRQPAGRGLEWLGRIYPSGNTNYSPSLKSRLTMSLDTSKNQFSMKLTSVSAADTAVYYCARDREQWPLYYGMDVWGQGTLVTVSS
VL: EIVLTQSPAILSLSPGDRATLSCRASQSVFTYLAWYQHKPGQAPRLLIYDASNRASGIPARFSGSGSGTDFTLTISSLEPEDFAVYYCQQRTKWPLAFGGGTKVEIK

What was measured:
[1] = biological target: DENV3 envelope (E) glycoprotein, wildtype DENV3 (strain not named at the place) (Dengue virus serotype 3)
[2] = biological target: DENV3 envelope (E) glycoprotein, strain Phillippines/16562/1964 (Dengue virus serotype 3); assay: live-virus capture ELISA
[3] = biological target: DENV1 envelope (E) glycoprotein, strain Nauru/West Pac/1974 (Dengue virus serotype 1, UniProt P17763); assay: cell-based or functional assay

Binder | FRNT EC50, Vero-81 [1] | EC50 [2] | FRNT EC50, Vero-81 (WUSTL) [3]
B1 | < 0.035 µg/mL | 0.0444 µg/mL | 
B2 |  |  | 0.329 µg/mL
